Data as given in publication PMC4498696.

What was measured:
[1] = target: full-length prefusion F N426D (RSV F residues 1-574 with the DS-Cav1 stabilizing mutations and N426D (respiratory syncytial virus, strain not stated) (UniProt P03420)); experiment: flow cytometry on cells
[2] = target: biotinylated prefusion RSV F DS-Cav1, subtype B (respiratory syncytial virus, subtype B | not stated) (UniProt P13843)
[3] = target: purified prefusion F N426D (respiratory syncytial virus, strain A2 | not stated) (UniProt P03420); experiment: ELISA
[4] = target: biotinylated prefusion RSV F DS-Cav1, subtype B (respiratory syncytial virus, subtype B | not stated) (UniProt P13843); experiment: Luminex bead binding assay; biotinylated RSV F proteins coupled to avidin-coated MagPlex beads (1 μg per 50,000 beads); IgG in 10-fold serial dilutions 1 μM to 0.1 pM; PE-conjugated anti-human IgG Fc; PBS, 0.1% BSA, 0.05% Tween 20
AM14 IgG (human) = experiment: ELISA
Chain of AM14 IgG (human) (heavy, as listed by the source, chain 1 of 2): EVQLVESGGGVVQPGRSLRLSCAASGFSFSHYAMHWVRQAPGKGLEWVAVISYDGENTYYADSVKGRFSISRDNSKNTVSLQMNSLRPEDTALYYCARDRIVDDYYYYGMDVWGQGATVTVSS
Chain of AM14 IgG (human) (light, as listed by the source, chain 2 of 2): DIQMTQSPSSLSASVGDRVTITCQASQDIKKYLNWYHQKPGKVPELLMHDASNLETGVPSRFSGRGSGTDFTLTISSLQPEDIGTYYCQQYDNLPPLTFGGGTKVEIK

Row | Substance | fold reduction of binding against wild-type prefusion F [1] [fold] | IC50 of neutralisation of RSV subtype B strain 9320 (F of the virus), microneutralization on HEp-2 cells [2] [µg/mL] | IC50 of neutralisation of RSV subtype B strain 18537 (F of the virus), microneutralization on HEp-2 cells [2] [µg/mL] | fold reduction of binding against wild-type prefusion F [3] [fold] | EC50 [4] [nM] | fold decrease in other (AM14 IgG (human)) [fold]
1 | AM14 IgG (antibody) | 4 | 0.0046 | 0.0308 | 100 | 0.18 | –
2 | cleaved monomeric RSV F (residues 1-524, without the foldon trimerization motif) (from UniProt P03420 26-109; P03420 26-524) (domain or fragment) | – | – | – | – | – | 100
